We go through one molecule from paper PMC9014876, “Vault RNA1–1 riboregulates the autophagic function of p62 by binding to lysine 7 and arginine 21, both of which are critical for p62 oligomerization”.

The target of this series is MBP-p62 WT (Homo sapiens, UniProt Q13501 1-440). Put plainly: EMSA; 2.5 mM Mg2+; bacterial tRNA and BSA; EMSA: 20 mM HEPES pH 7.9, 100 mM KCl, 2.5 mM MgCl2, 5 mM DTT, 0.2 mM EDTA, 20% glycerol, 1 mg/mL BSA, 150 nM tRNA, room temperature; NMR: 20 mM MES pH 6.5, 100. The following applies: protein: recombinant; tags: MBP; label: 32P (internal alpha-UTP for EMSA; end-labelled for footprinting); base-paired terminal stem, central flexible loop.

B1: vault RNA1-1 WT (structured_RNA)
RNA: GGCUGGCUUUAGCUCAGCGGUUACUUCGACAGUUCUUUAAUUGAAACAAGCAACCUGUCUGGGUUGUUCGAGACCCGCGGGCGCUCUCCAGUCCUUU
Take B1: the binding result is “binds”.
